Assay results reported in publication doi:10.1101/2020.05.03.074682.
pKd: −log10 of the molar value.

Biological target: biotinylated C-terminal cytosolic tail of GCS
Experiment: ITC

pKd: 5.70
Substance: GRASP domain of GRASP55 (recombinant, used for ITC) (domain or fragment)
